Experimental data published in patent US10246503B2, “Method of improving the pharmacokinetic profile of a therapeutic polypeptide and the use thereof” (BEIJING ANXINHUAIDE BIOTECH. CO., LTD, priority 2012, dated 2019).

System: SD rats
Experiment: Intraperitoneal glucose tolerance test (IPGTT) in SD rats
Type: in vivo, SD (Sprague-Dawley) rats
Description: In this figure, GLP1(A8G/G22E/R36G)-Fn8-p246-COL18NC1 is labeled as p246. In FIG. 9a, the rats were injected with saline, GLP1(A8G/G22E/R36G)-Fn8-p246-COL18NC1 at the dose of 10_nmol/kg and 20_nmol/kg, respectively. 8 hours after the administrations of the fusion protein (and control), the IPGTT experiments were conducted. The three curves indicated the glucose levels in the IPGTT for rats that received negative control (saline), GLP1(A8G/G22E/R36G)-Fn8-p246-COL18NC1 at the doses of 10_nmol/kg and 20_nmol/kg, respectively. In FIG. 9b, the rats were injected with saline, GLP1(A8G/G22E/R36G)-Fn8-p246-COL18NC1 at the dose of 20 nmol/kg. 32 hours and 102 hours after the administrations of the fusion protein (and the control), the IPGTT experiments were conducted. The three curves indicated the glucose levels in the IPGTT for rats that 32 hours and 102 hours after administration of negative control (saline), GLP1(A8G/G22E/R36G)-Fn8-p246-COL18NC1 respectively.
To evaluate the efficacy of GLP1(A8G/G22E/R36G)-Fn8-p246-COL18NC1 to reduce the glucose level in animal models, we performed the Intraperitoneal glucose tolerance test (IPGTT) in SD rats. The fusion protein GLP1(A8G/G22E/R36G)-Fn8-p246-COL18NC1 was administered on SD (Sprague-Dawley) rats by intraperitoneal injections at the dose of 10 nmol/kg and 20 nmol/kg for animals, respectively. Glucose was injected into the animals with the dose of 2 g/kg at 8 hours, 32 hours and 100 hours after the injection of the fusion protein GLP1(A8G/G22E/R36G)-Fn8-p246-COL18NC1. Blood samples were taken at various time points after injections such as 0-min, 10-min, 20-min, 30-min, 60-min and 120-min. The glucose levels within the blood samples were measured using a Accu-Chek Performa blood glucose meter (Roche) immediately. In FIG. 9a, the rats were injected with GLP1(A8G/G22E/R36G)-Fn8-p246-COL18NC1 at the dose of 10 nmol/kg and 20 nmol/kg about 8 hours before the IPGTT experiments were conducted. […] In FIG. 9b, about 32 hours and 100 hours after the rats were injected with GLP1(A8G/G22E/R36G)-Fn8-p246-COL18NC1 at the dose of 20 nmol/kg, the IPGTT experiments were conducted.

B1: GLP1(A8G/G22E/R36G)-Fn8-p246-COL18NC1: GLP-1 mutant, Fn8, pCloud p246, COL18NC1 fusion; SEQ ID NO: 16 (protein)
chain: HGEGTFTSDVSSYLEEQAAKEFIAWLVKGGGSGGGSGGGSGGGSGGGSGSGGAVPPPTDLRFTNIGPDTMRVTWAPPPSIDLTNFLVRYSPVKNEEDVAELSISPSDNAVVLTNLLPGTEYVVSVSSVYEQHESTPLRGRQKTGGGGSGGGSGSGSESGSGGGSTSSGTGSETESPGSGSESGSGPSSAGSGSGSESGSGSGSSGPGSTGGSGSESGSGPGSSGTGGTATGSGSESGSGPGSSGPGSTGSGSGSESGSGSGSSGTGSTGGSGSESGSGPGSPRPGSTGTGSGSESGSGPGSSERGSAGGSGSESGSGTSESSASGSTGGSGSESGSGSESGSGSGSESGSGPESPGSGGSGSESGSGTSGSTGSGSESGSGGGSGGGSGGGASSGVRLWATRQAMLGQVHEVPEGWLIFVAEQEELYVRVQNGFRKVQLEARTPLPRG
In the case of B1, the “glucose level in IPGTT” value (10 nmol/kg intraperitoneal, about 8 hours before IPGTT, glucose 2 g/kg) is reported as “can efficiently reduce the glucose level”, the “glucose level in IPGTT” value (20 nmol/kg intraperitoneal, about 8 hours before IPGTT, glucose 2 g/kg) is reported as “can efficiently reduce the glucose level” and the “glucose level in IPGTT” value (20 nmol/kg, 100 hours after the injection) is reported as “can still reduce the glucose level significantly”. For the same molecule, the “glucose-reducing activity in IPGTT” value (single dose 20 nmol/kg, IPGTT about 32 hours and 100 hours after injection) was “can maintain its glucose-reducing activity in vivo for an extended period of time”.
